The data set is described as follows: soluble on expression in E. coli; label from the status in PepcDB or PDB records.
As to “MAHHHHHHMSAMSSSDDAPPHQRLASEQSKRDSGAHVGAREHIHDAPTLSARARFLRELERYASDDDDYGGNGGAAVVGAGPMRQPNQANGAPQRRTAFPLVSATRAAAPSVGPSSSSDFFFGGEGGSHDEADDEDVGEDAVWSTASAASLARTLNGVPVTGSTSDIGTTGGSAAPSRVGLQLLHRMHALSTSGDRRSSGHDSAVHSAATRANVMIPQTSPTPTSSADFEVVHAYVPLSTGGFLSTANAAHDTMEGYQVRIGDVLSLRKPLSCTDPPPSSAVASAPASSPTTSTATPSIAALTLTTGSAAAGASATGSLVKDVAQKAMGHFKSAATFTSEEQKYGRKLTPDMVRLLFEVTRVDYQGRSIEALFLDGTRAKVSFFEVRPAGYVERKMYATWKADPSSRPVTIIHSNASSPTTSSAPNGAVMPSSVPSPALPPPPSVTAAAWWVIPRLLVRVTTEAAGDWYGKKCVVKAVQRSENRVRLAEWVEEGRSDGGESGSRSFHNCGKPTAATAETRELIGVDGLETVVPKKGGRAMVVLGSRRGEMCTVRNRVRGADGELTAVEVEISRTKEVMTLQAGELCALAR”, the “soluble on expression in E. coli” value is given as “soluble”.
Next, “MAHHHHHHMSAPKEGNRGESKEKFWLYAFRDHLANLRAFSNCIETADVNGVGDYQLLVADGSKRIKVYAGTSLQRELPLFGVPSAITSFFMDDADAFGKPVVAVATGPYIFMYRSNKPLYRFMVPPVPLNPQESAIWQDLATEALTVEEAVKQLESLLDSGVETSSRTLELLLETPEERGEFVSRLRSVPLIQMDVVCCLTSIPLNSLDEGGRSVLVIGTEAGFLYVLKHNAAEVALKVVLPRTPVFLIAAGCFEVDYRMVVACRDGRVYSIKQGNLQNAVIQPDAQPCAIARYNNLIAVATTANTLAYYNLKGKKQQSVFLPCSISGLSTINDTVTGEARGLVVALSNGEIRVYVGTQLHHVSLAYGTVTAMKFGRYGRSDGALVLVLQNGSLVVELLHRGVNLSCSKTVETGPPPQQDIPIPIPHLSSVFATQSSRERKHGVEMYQLFQYDLSQLRLTTAKAYLDMIANGSVPSELGNVTQENEGVAEPSLRLNAVVQGLGPVFKVKVQLQNVGEAPLHAVRVVFCLSEDNVYCMPQQIFLIPTLLPSVPLSCAAFVTTSEGEAKGNAILVVATGPKSRTPLARTLVDLPEVEAMAEV”: “not soluble”.
On to “MAHHHHHHMSATRDGSRSHSDGGFDGRSLLSEQTKLLRESTPADINFIQFLKLRLSAQQRATAQRNYWQRVQREAADSMNANTAHRQGRGGISASVAPVSTSAAGRESEASSNHIGSGRRNWHAAGSAEGASFSTYDAEHMMLEHSTASFGTLSKQDAFTRATSHGAVPPPTVHQHSFEDLRAAVLKRRSTPASELTDFVAVSTAELSEDGNSSQRRPSGPLQEEDAYALAPFIASSYSAAAAAAIDERPAMACGKPQVPVDVDEMKDVALEPCPHCGRTFAPARLERHVVTCERHRNTLPKTKGDMKSCRAFSSRKKPDRTAGGDGAAASAAATANTAGAAPGGPLRWSTDTAIKPEKWRKQSAQLRNAMAGASVAVDDDRVLCPSCGRHFSDDVAARHIPICKSKGGRAA”, for which the “soluble on expression in E. coli” value is “not soluble”.
Turning to “MAHHHHHHMSEGKRATSAAPEAKYNAYAEAADPDRYRVADALLFTCAEHGKACVLCVTAGKNGRSGRTAAVGATLFWLTCPNLNAIIARFEGHRCVQAVSAAMAQQPCLCDWHVQSHDVYASRAKDLLSPAQWCFFESHFLSDEQPSLHKYGNAAVSHASDMKCLHALVAQTLAGVANPVGSVVVNYILLQHKLVCEAADTGNTEQQGVEEKRLLMKATLNSTRLFSDFTTAFVRAASERPREDWHALHNVSFEVPLPEGNMWCKTAVQYMWQVDSQLAALCPDLCARALTVHVALGGPSRRRHKKHRMN”, the “soluble on expression in E. coli” value is recorded as “not soluble”.
In the case of “MAHHHHHHMSGNDLLPLWIGTPQRGVTHDDTADPYTSKVGGQAVYFRLGASTAEQQSAGALSKYFQCPQCKSTAQVSLLCQVYAPLEVYDRVLYILTCAACTRRPRAAASLQGSVPAPALTTGTSKKSGLAAAARSHTSFCFALRSQNFSREHFAELQKQLRAEAQRATEDEKEKAENDAPLFGGGDDDWGDDADDWGTEEGPVKEAKPSPAEPLDDAGDKNGALEKTPNELPEFPLASRGMTVPLKGTLYTSGLPLDLYEEPPPKQTKELSIEEQLAAAKSMYGSSAALDTSGFEEDDEAPEERCVREYMEHMERTPSQCVRWCLGGTPLRTSTTPIGVNGSSLPPPCPACGAVRQFEMQLTAPVVFYLTKDIGEAKNTALHFSNVLVYTCSSNCYNTNSNLPYLPEYVVVEDEL” it was “not soluble”; in that of “MAHHHHHHMSIDAGLCDRYVVFLDIDGVLLPVPKFTFGGGNLSGRCAQTLKRLIAALGGRDKVTLVLSSTWRNHPVMVDRLNTFMQKEAGDGIPVVSERTPNGTVLMSSVTYYADDPSEQRLVRDRVDEVYRWLHTHITDHPEAIGGRWFAIDDMQLDVDERMRGHFLHTQTDVGITEADVDTACAMIASHPSPTEAYAAAVAALADPALKAEEVEIQRVLQSRLEAQLAATTAELTEAQEKMAALSAEKKDLIKELAEKQRSIDDMRYRLAVYDFSKRYPCLATAVELAGTKSGAERRAMDAAIRTFVTLLMDRKELQKKMRSEAKKVKQAS”, “not soluble”.
In the case of “MAHHHHHHMSITSRFIGGVKHLLKGGSMKYLAAGEPYCPFGEAFGLTILPEYILEDDASNLRKGYVDVYTRASDRIILNDGRFQLPPLPPASFMPLLERLEQDNVVPKSWLNNQTANLYEPGDFIRAHIDNLFVYDDIFAICSLGSNCLLRFVHVQNGEELDVMVPDRSVYIMSGPARYVYFHMVLPVEAQRFSLVFRRSIMESDGGF” it was “not soluble”.
As for “MAHHHHHHMSLITTICRHPLASKRFMIVFRNEEGEELPEIFELRTRYEAIAPIAKGAYGFVCAATDNDLVENFHMSPPEEYNDPSLSKEERLDIYESHTTVAVKKLRQLFEQNRPRMWLCATREIQLMMAFKHENVMSALDFFIPLGDCERMTYESVEYLRHNFDSVYIVMKKMEYTLREVLESSVFTTTDTQDECGKLSNGKITSSAGTEKHDDGAHDDINKSTARRNERIARCPQTHLVLHPLARDYRMFILYQLLRGVGYMHLCLVIHRDIKPENIMLDRNYNTRVCDFGQGRDAVATELDGVLQTFLDNCTQWYAAPETLTLANVSSPSGFVDQKTLHAADVWSIGCIAAEMVIGRPLFYCRHSGGVGQLNAIMGVLGKIPEEAAERILQHRDEDTQKLFESVMRREMQQHLHKPSTLRRLLQSPYGDVDEEEIRLIERLLCYDPSQRITIQEALQSNYFINEGYEPVIDPDDTATHVRAVEAKEVVDAVRGRRFLWSLFLKHHPEVEELMRVLEIRRNSSSTDSTEVPPPACV”, the “soluble on expression in E. coli” value is on record as “soluble”.
With “MAHHHHHHMSLPIMSVVRMAVQELPLLSFAPTSLVSDGCVFLPTLSDCSAFAGCSITSATLQCDGTLLIKVVPAILRLIPLKGISSSHGYSSLAAGGSHSEAVALLKGLPTVRLQAVSPVFPLFTPGGCVEYFSATSQQTTAAVPVLTNTIREHLRRLRAYVPQHLDELVPSAPSKVSSWFVVSYPGADAVPEPCLFVLPDVLVVRTVMSQVGSRKIPPHHKRSVAVMGQSGVAKLLEELKWSGCAVRVVDDANHVCVLPPTLTAASQMKQVTH”, the “soluble on expression in E. coli” value was “soluble”.
In the case of “MAHHHHHHMSLSIHTNYGDIKIELFCYEVPKTCKNFLALCASGYYDNTKFHKNIKGFAIQGGDPTNTGKGGQSIYGKYFEDEFDSTLKHDKRGIVSMANKGKPNTNGSQFFITYSRQPHLNGIYPVFGKVIDGMDVLSVLENEPVGEKSRPIKDIIIETITIHANPIAEEESVDN” it was “not soluble”; in that of “MAHHHHHHMSMNNPAPSPQAPMAAPLDASATVHPRENLAVSAPPGATGAGHNKRLPEELAEFLHTQPPRMETINERKQLFCTRLYMTPPRVLATEGAERRGETLGASLTATGTTSNDSVVGAPLLRSPPPAVLPAAGAPASLKIAKTVPFSEEEHLAWLCAPASPTESRTSAAVPPEAAASSRGLARTERISHAQSEGVRRHEPDRRAVGATATQQPHLSHGASDAHGNDAPARLQGLVAASMATAPNPATPLALQHGEISYKSSFSVLTSWDALMVAPPLLRTTPRMPSLLTQDVENIGTAAMHLNRSTTVTHACASDDVARIPSTGSRAELLIGTSPATEKGEARQEEARADAVLQQPVFPSSCCTRSPTTVPSRLKYDGHGLSPEDSLHQVEEDSARTFVKHFTNGLVFVDPPWFICPVLLDNCEHPYYMTWLDELEVGSVEEAVAETKAKLLTDA”, “not soluble”.
Next, “MAHHHHHHMSNCPHPRGDCGGRSVAAEGTLVPSHISCGDFTFQGGQTPRKELAGVHTSALMQPGLSSAVPSNSILSFSHDVVAAGNGMPPSVSPASSEKKKVLGTSGGGGSAEGTLNSANSSDQGPTGTPVKRNTKPLVPQQHVTKCQLTPNDAAASGLLITTPETPCNEKNPVYAAVGAARQSRERMISAENFTVIQPGGKLRTHLPPQRESGSDKKGKK”: “soluble”; “MAHHHHHHMSNHGGSSSLDALGGVETAAAETTRNIVLGLPKDGPVPGSSDAASLQAAEAFIGSIQQEIMACDMANARAMELYARHWWTKVPYFGKRFGSTTATLEVTGADGGGVSGLPACTGTSDGQHKHMRLERSSEVAAVPGTSRGQQQRLNSWFFKLRHPGWVPIIQRPWVPYFCIGCLMLVWTPDIWKLRTLHWCDYQYAEFRRAVHRAYWRATMSAEDYKELMEELERGRPPPFGVSKCPL”: “not soluble”.
In the case of “MAHHHHHHMSPASLAKSSQDKTAPSTEGTTRFGDSSPPVAAAASPAMYGQPWNTPTTLHSLVESVTRESGEAAAARAGTSKSTVPRLAVSRSLPCSTTVVQETVTNTGRVVSTVATGAAAPSSLLTGTDTPTPLWRSTATTAAVRAEHLRELEDFLEQRGGRGTSMEGRHKVIQKALSLLPVVYPPLAKVAEPMQRYIEDVAASLRRAATEKGRSAAASGERAVRAVRSVFRREDTRAHAGEEAGRGGGKGGARCRLSPCVQERDVELMAVKEQLMQRMNTCEKTEDQFRDFRHLIASVFNTNQQLNLRIEQLEEVLARHRIDLPPASEEMMAFQTSLDGQRSFVPQASTVDGDGDDDSSSGG” it was “not soluble”; in that of “MAHHHHHHMSRLLKHYGSCKTAFFCCDIQEKFMGRIANSANCVFVANRFAGLHTALGTAHSVYIVTEQYPKGLGATSADIRLPPDAHVFSKKRFAMLVPQVMPLVDLPEVEQVVLWGFETHVCILQTAAALLDMKKKVVIAVDGCGSQSQGDHCTAIQLMQSWSGDGCYISTSESILMQLLKDASDPVFKTIAPLMKQTHPIRI”, “soluble”; in that of “MAHHHHHHMSSSAEEKEAKKQEELRLAGSDSEGVRAAVKAQRELKKKRDALRKVQKKIRSGGSDAEVAAAIEQEAALLAEIGHLEALRGASSAPSTAHVAAASFTSTPATAAASPGALVTVATNKSSGAKAARSGEPAKEITAEERAASAKRLHDLVQGAMDANRLKCLHVLPRDAVVHPRIAEVAVLMEQMLLVGGSARALALISAFRELSRTTTVLAVPSLNEVNTTAFEKLIQINFDFVRRKREASAGMRHVKDVLVRRFVALRDEVIHPKPNMVDLIKDL”, “not soluble”.
On to “MAHHHHHHMSSVINYEKFEKIDISSSDDDNKKKLNPHLTKLDNKDKVVIGPNGLTILKNNNDEKIKHDKYNNTSKNVEEIKDKNDEYKTIYNETNNEILNNKNDNIHVQNMNNYVADDKKYKDMFINGAVVPYEYIWNQSIHYINAFICLPLNCKAKNLIVDIKEDKLIVKIKNYKCGIIYNNNNNNNKTNQHNTQSNSFHDNVEILVDKKFPFKINTDEDTQIWEIKNMQINWYTLFNLSNEINNQNVHYLFEDYNMLDKQETFLYISVKKINEIENAYIWWSTLFKNEHPIKIENLPSRSSTNKAKKTMNSFKTAWDEAHEIFKKNISMKQLPFRIDSS”, for which the “soluble on expression in E. coli” value was “soluble”.

(Values after the DeepSol protein solubility set.)
